Assay results as given in PMC10397247.
Each block holds one binder with its values, some of them ahead of it.

Experiments:
Core_NNIN-es_KKEK = molecular target: T1, Core_NNIN-es_KKEK; assay: two-hybrid library CCmax; conditions: mean of both orientations;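 further: natural log of median RNA to DNA barcode read ratio; higher means stronger binding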
T1 chain: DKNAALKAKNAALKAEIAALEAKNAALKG

P4mSN = molecular target: T2, P4mSN; assay: two-hybrid library CCNG1;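 further: natural log of median RNA to DNA barcode read ratio; higher means stronger binding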
T2 chain: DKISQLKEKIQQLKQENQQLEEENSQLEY

P6mSN = molecular target: T3, P6mSN; assay: two-hybrid library CCNG1;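 further: natural log of median RNA to DNA barcode read ratio; higher means stronger binding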
T3 chain: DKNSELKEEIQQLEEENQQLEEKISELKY

P7mSN = molecular target: T4, P7mSN; assay: two-hybrid library CCNG1;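 further: natural log of median RNA to DNA barcode read ratio; higher means stronger binding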
T4 chain: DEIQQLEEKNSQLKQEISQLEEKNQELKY

P10mSN = molecular target: T5, P10mSN; assay: two-hybrid library CCNG1
T5 chain: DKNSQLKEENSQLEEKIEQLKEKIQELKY

P2mSN = molecular target: T6, P2mSN; assay: two-hybrid library CCNG1
T6 chain: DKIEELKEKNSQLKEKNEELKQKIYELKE

P3mSN = molecular target: T7, P3mSN; assay: two-hybrid library CCNG1
T7 chain: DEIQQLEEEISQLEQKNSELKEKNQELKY

P8mSN = molecular target: T8, P8mSN; assay: two-hybrid library CCNG1
T8 chain: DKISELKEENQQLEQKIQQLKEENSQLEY

P1mSN = molecular target: T9, P1mSN; assay: two-hybrid library CCNG1
T9 chain: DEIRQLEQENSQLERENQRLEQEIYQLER

P12mSN = molecular target: T10, P12mSN; assay: two-hybrid library CCNG1
T10 chain: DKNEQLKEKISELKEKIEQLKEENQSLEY

P11mSN = molecular target: T11, P11mSN; assay: two-hybrid library CCNG1
T11 chain: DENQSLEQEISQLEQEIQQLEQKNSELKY

P5mSN = molecular target: T12, P5mSN; assay: two-hybrid library CCNG1
T12 chain: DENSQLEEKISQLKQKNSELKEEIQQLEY

P9mSN = molecular target: T13, P9mSN; assay: two-hybrid library CCNG1
T13 chain: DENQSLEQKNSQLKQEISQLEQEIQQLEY

Core_NIIN-es_KKEK = molecular target: T14, Core_NIIN-es_KKEK; assay: two-hybrid library CCmax; conditions: mean of both orientations
T14 chain: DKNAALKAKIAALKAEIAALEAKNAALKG

Core_NNII-es_KKKE = molecular target: T15, Core_NNII-es_KKKE; assay: two-hybrid library CCmax; conditions: mean of both orientations
T15 chain: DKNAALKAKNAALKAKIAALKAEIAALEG

4H3381-bA = molecular target: T16, 4H3381-bA; assay: two-hybrid library CCNG1
T16 chain: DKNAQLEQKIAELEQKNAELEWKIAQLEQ

4H3364-bA = molecular target: T17, 4H3364-bA; assay: two-hybrid library CCNG1
T17 chain: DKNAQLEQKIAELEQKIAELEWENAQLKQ

4H796-bA = molecular target: T18, 4H796-bA; assay: two-hybrid library CCNG1
T18 chain: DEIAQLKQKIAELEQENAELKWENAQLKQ

4H2760-bA = molecular target: T19, 4H2760-bA; assay: two-hybrid library CCNG1
T19 chain: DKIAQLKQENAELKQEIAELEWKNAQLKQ

4H3628-bA = molecular target: T20, 4H3628-bA; assay: two-hybrid library CCNG1
T20 chain: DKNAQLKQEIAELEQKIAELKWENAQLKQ

4H2931-bA = molecular target: T21, 4H2931-bA; assay: two-hybrid library CCNG1
T21 chain: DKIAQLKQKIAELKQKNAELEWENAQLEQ

4H349-bA = molecular target: T22, 4H349-bA; assay: two-hybrid library CCNG1
T22 chain: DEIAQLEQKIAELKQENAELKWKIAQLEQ

4H730-bA = molecular target: T23, 4H730-bA; assay: two-hybrid library CCNG1
T23 chain: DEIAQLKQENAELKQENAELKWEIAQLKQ

4H4073-bN = molecular target: T24, 4H4073-bN; assay: two-hybrid library CCNG1
T24 chain: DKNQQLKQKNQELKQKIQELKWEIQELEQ

4H56-bA = molecular target: T25, 4H56-bA; assay: two-hybrid library CCNG1
T25 chain: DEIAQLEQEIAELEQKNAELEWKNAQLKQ

4H2859-bA = molecular target: T26, 4H2859-bA; assay: two-hybrid library CCNG1
T26 chain: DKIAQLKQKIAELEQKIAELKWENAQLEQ

4H166-bA = molecular target: T27, 4H166-bA; assay: two-hybrid library CCNG1
T27 chain: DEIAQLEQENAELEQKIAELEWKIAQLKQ

4H949-bA = molecular target: T28, 4H949-bA; assay: two-hybrid library CCNG1
T28 chain: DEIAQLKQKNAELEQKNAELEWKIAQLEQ

4H2162-bA = molecular target: T29, 4H2162-bA; assay: two-hybrid library CCNG1
T29 chain: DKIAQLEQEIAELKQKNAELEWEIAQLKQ

4H2585-bA = molecular target: T30, 4H2585-bA; assay: two-hybrid library CCNG1
T30 chain: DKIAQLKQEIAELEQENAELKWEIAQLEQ

4H932-bA = molecular target: T31, 4H932-bA; assay: two-hybrid library CCNG1
T31 chain: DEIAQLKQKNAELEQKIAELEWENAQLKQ

4H235-bA = molecular target: T32, 4H235-bA; assay: two-hybrid library CCNG1
T32 chain: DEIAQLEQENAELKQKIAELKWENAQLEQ

4H2233-bA = molecular target: T33, 4H2233-bA; assay: two-hybrid library CCNG1
T33 chain: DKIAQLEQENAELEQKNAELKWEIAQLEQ

4H3041-bA = molecular target: T34, 4H3041-bA; assay: two-hybrid library CCNG1
T34 chain: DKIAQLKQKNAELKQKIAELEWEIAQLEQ

4H2444-bA = molecular target: T35, 4H2444-bA; assay: two-hybrid library CCNG1
T35 chain: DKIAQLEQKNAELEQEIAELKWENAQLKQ

4H2253-bA = molecular target: T36, 4H2253-bA; assay: two-hybrid library CCNG1
T36 chain: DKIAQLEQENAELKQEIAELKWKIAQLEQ

4H3297-bA = molecular target: T37, 4H3297-bA; assay: two-hybrid library CCNG1
T37 chain: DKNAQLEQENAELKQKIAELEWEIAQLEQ

4H264-bA = molecular target: T38, 4H264-bA; assay: two-hybrid library CCNG1
T38 chain: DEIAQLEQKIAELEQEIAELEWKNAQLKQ

4H2143-bA = molecular target: T39, 4H2143-bA; assay: two-hybrid library CCNG1
T39 chain: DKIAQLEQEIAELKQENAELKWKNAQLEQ

4H2518-bA = molecular target: T40, 4H2518-bA; assay: two-hybrid library CCNG1
T40 chain: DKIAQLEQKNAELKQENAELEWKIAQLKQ

Binder: DKNSQLKEENSQLEEKIEQLKEKIQELKY [P10mSN]
- interaction score (P4mSN): -0.959
- interaction score (P6mSN): -0.212
- interaction score (P7mSN): 0.521
- interaction score (P10mSN): 0.0645
- interaction score (P2mSN): -1.62
- interaction score (P3mSN): -0.696
- interaction score (P8mSN): -0.586
- interaction score (P1mSN): 0.0169
- interaction score (P12mSN): -0.911
- interaction score (P11mSN): -0.495
- interaction score (P5mSN): -0.891
- interaction score (P9mSN): 0.647

Binder: DENAALEAEIAALEAKIAALKAENAALEG [Core_NIIN-es_EEKE]
- interaction score (Core_NIIN-es_KKEK): 1.96

Binder: DEIAQLEQENAELEQKIAELEWKIAQLKQ [4H166-bA]
- interaction score (4H3381-bA): 0.0741
- interaction score (4H3364-bA): -0.668
- interaction score (4H796-bA): -0.288
- interaction score (4H2760-bA): 1.38
- interaction score (4H3628-bA): -0.111
- interaction score (4H2931-bA): 1.56
- interaction score (4H349-bA): -0.678
- interaction score (4H730-bA): -0.818
- interaction score (4H4073-bN): 1.76
- interaction score (4H56-bA): -0.289
- interaction score (4H2859-bA): 1.07
- interaction score (4H166-bA): 1.79
- interaction score (4H949-bA): 0.655
- interaction score (4H2162-bA): 0.273
- interaction score (4H2585-bA): -0.344
- interaction score (4H932-bA): -0.303
- interaction score (4H235-bA): 0.308
- interaction score (4H2233-bA): 0.472
- interaction score (4H3041-bA): 1.54
- interaction score (4H2444-bA): 0.00294
- interaction score (4H2253-bA): 0.212
- interaction score (4H3297-bA): 1.92
- interaction score (4H264-bA): 1.18
- interaction score (4H2143-bA): -0.442
- interaction score (4H2518-bA): 2.14

The remaining lines, values ahead:

- interaction score (Core_NNIN-es_KKEK): 2.2
Binder: DENAALEAENAALEAKIAALKAENAALEG [Core_NNIN-es_EEKE]

- interaction score (Core_NNII-es_KKKE): 2.42
Binder: DENAALEAENAALEAEIAALEAKIAALKG [Core_NNII-es_EEEK]
